# Source: article PMC8517210, “Structural and DNA-binding properties of the cytoplasmic domain of Vibrio cholerae transcription factor ToxR”
# Key:
# Details in all cases: protein: recombinant; tags: N-terminal His6; chain copies: 2; none in NMR; blunt
# cToxR_1-134 [1] = target: T1, cToxR_1-134 (Vibrio cholerae, UniProt P15795 1-134); experiment: fluorescence anisotropy
# cToxR_1-134 [2] = target: T1, cToxR_1-134; experiment: NMR CSP titration; mean as printed; T111 6.82 ± 1.07, L99 5.16 ± 0.46
# cToxR_1-134 [3] = target: T1, cToxR_1-134; experiment: NMR CSP titration; mean as printed; T111 28.26 ± 5.73, L99 27.88 ± 3.01
# cToxR_1-134 [4] = target: T1, cToxR_1-134; experiment: NMR CSP titration; mean as printed; T111 14.21 ± 0.31, L99 14.78 ± 6.62
# cToxR_1-134 [5] = target: T1, cToxR_1-134; experiment: NMR CSP titration; mean as printed; T111 0.15 ± 4e-9, L99 0.63 ± 1e-8
# T1 sequence (P15795 1-134): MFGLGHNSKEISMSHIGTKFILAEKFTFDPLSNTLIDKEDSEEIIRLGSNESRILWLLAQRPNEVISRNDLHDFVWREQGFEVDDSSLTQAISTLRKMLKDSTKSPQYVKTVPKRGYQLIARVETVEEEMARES
Binder,Kd (cToxR_1-134 [1]) [µM],Kd (cToxR_1-134 [2]) [µM],Kd (cToxR_1-134 [3]) [µM],Kd (cToxR_1-134 [4]) [µM],Kd (cToxR_1-134 [5]) [µM]
ompU (dsDNA) DNA 1: ATTTATATCATTTTA DNA 2: TAAAATGATATAAAT,5.49 ± 0.91,5.99,,,
ctx (dsDNA) DNA 1: GATTTTTGATTTT DNA 2: AAAATCAAAAATC,9.71 ± 0.84,,28.1,,
ompT (dsDNA) DNA 1: TTTTATGGTATTTGA DNA 2: TCAAATACCATAAAA,12.8 ± 1.27,,,14.5,
toxT (dsDNA) DNA 1: CTCAAAAAACATAAAA DNA 2: TTTTATGTTTTTTGAG,0.66 ± 0.1,,,,0.35
